Measurements from IntAct's records for PubMed 29997244.

B1: DnaJ homolog subfamily C member 5 (Homo sapiens), Q9H3Z4 (parent)
chain: MADQRQRSLSTSGESLYHVLGLDKNATSDDIKKSYRKLALKYHPDKNPDNPEAADKFKEINNAHAILTDATKRNIYDKYGSLGLYVAEQFGEENVNTYFVLSSWWAKALFVFCGLLTCCYCCCCLCCCFNCCCGKCKPKAPEGEETEFYVSPEDLEAQLQSDEREATDTPIVIQPASATETTQLTADSHPSYHTDGFN
B2: DnaJ homolog subfamily C member 5 (Homo sapiens), Q9H3Z4 (parent)
chain: B1 chain
partner: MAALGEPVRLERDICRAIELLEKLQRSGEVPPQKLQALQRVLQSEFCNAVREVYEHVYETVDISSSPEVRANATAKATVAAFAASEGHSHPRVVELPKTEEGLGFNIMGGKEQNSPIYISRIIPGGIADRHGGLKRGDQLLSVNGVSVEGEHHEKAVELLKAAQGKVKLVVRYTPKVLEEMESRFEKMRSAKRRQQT

Variants of: B1
Settings: with zdh17_human ZDHHC17, Q8IUH5
Sequence of zdh17_human ZDHHC17, Q8IUH5 (Q8IUH5 whole entry): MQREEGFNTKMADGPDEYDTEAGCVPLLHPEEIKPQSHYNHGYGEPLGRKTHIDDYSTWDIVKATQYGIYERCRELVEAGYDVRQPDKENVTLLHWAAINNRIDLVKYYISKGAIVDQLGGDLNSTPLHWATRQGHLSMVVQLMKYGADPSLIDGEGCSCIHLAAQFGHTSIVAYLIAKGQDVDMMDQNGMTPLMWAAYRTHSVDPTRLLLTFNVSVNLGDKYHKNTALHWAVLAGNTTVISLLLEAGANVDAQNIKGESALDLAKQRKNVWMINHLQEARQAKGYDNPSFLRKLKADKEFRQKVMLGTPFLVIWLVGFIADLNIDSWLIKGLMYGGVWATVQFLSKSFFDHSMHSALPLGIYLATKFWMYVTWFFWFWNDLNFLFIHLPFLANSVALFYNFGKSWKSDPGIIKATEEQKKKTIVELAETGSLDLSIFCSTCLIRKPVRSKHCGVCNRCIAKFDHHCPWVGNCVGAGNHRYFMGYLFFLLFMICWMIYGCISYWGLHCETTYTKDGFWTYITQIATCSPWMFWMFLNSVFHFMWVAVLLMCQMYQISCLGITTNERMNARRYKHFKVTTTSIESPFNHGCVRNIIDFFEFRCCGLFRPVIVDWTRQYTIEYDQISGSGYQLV

| Variant | effect of a mutation on the interaction |
| --- | --- |
| L115R | increasing interaction strength |

Variants of: B1
Settings: with ap2b1_human AP2B1, P63010

| Variant | effect of a mutation on the interaction |
| --- | --- |
| L115R | with no effect |

Variants of: B1
Settings: with caps1_human CADPS

| Variant | effect of a mutation on the interaction |
| --- | --- |
| L115R | with no effect |

Variants of: B1
Settings: with cskp_human CASK

| Variant | effect of a mutation on the interaction |
| --- | --- |
| L115R | increasing interaction strength |

Variants of: B1
Settings: with lipa1_human PPFIA1, Q13136
Sequence of lipa1_human PPFIA1, Q13136 (Q13136 whole entry): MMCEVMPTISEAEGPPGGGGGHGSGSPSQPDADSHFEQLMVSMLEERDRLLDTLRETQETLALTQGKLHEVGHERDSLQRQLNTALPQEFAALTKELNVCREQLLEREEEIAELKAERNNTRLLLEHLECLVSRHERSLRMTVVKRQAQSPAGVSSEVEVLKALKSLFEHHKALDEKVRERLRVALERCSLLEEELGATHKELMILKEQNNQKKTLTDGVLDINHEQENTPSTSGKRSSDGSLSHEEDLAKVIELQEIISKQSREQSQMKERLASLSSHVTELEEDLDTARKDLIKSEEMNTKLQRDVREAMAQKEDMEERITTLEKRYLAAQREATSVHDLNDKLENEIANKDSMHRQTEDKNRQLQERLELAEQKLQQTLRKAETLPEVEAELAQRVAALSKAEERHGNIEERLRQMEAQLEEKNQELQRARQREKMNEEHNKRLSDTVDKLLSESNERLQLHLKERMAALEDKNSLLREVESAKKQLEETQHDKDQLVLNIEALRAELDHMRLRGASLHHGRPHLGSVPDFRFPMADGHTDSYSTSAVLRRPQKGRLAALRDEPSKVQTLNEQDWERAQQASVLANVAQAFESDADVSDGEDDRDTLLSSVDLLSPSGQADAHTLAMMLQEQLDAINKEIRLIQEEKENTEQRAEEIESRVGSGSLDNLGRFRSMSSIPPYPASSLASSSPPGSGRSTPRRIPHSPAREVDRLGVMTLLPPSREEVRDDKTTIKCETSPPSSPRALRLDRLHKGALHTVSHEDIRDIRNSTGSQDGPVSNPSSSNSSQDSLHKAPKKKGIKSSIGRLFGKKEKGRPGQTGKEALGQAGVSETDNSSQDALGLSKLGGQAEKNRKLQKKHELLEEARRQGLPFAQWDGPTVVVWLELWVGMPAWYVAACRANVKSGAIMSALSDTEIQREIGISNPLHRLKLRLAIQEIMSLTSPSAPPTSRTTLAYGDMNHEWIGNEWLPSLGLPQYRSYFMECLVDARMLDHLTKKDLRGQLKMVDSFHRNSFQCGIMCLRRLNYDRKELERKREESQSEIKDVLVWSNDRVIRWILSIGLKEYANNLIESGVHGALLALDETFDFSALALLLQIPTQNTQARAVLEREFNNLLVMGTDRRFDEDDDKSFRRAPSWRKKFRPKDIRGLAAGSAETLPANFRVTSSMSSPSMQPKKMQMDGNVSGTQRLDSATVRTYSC

| Variant | effect of a mutation on the interaction |
| --- | --- |
| L115R | with no effect |

Variants of: B1
Settings: with lipa4_human PPFIA4, O75335

| Variant | effect of a mutation on the interaction |
| --- | --- |
| L115R | increasing interaction strength |

Variants of: B1
Settings: with rabx5_human RABGEF1, Q9UJ41
Sequence of rabx5_human RABGEF1, Q9UJ41 (Q9UJ41 whole entry): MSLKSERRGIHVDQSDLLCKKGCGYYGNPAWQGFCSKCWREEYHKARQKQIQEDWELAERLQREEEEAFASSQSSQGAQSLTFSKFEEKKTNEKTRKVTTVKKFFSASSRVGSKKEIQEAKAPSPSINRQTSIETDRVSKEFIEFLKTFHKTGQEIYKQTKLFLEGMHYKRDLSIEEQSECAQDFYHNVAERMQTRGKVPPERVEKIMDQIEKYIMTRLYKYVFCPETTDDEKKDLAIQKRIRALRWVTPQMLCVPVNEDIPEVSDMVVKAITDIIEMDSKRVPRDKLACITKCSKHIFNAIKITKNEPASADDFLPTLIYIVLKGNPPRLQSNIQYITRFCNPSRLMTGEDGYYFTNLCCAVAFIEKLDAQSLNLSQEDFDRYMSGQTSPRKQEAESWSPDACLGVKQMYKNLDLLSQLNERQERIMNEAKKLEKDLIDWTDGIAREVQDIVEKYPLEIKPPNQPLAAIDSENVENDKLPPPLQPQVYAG

| Variant | effect of a mutation on the interaction |
| --- | --- |
| L115R | decreasing interaction strength |

Variants of: B1
Settings: with sh3g3_human SH3GL3, Q99963
Sequence of sh3g3_human SH3GL3, Q99963 (Q99963 whole entry): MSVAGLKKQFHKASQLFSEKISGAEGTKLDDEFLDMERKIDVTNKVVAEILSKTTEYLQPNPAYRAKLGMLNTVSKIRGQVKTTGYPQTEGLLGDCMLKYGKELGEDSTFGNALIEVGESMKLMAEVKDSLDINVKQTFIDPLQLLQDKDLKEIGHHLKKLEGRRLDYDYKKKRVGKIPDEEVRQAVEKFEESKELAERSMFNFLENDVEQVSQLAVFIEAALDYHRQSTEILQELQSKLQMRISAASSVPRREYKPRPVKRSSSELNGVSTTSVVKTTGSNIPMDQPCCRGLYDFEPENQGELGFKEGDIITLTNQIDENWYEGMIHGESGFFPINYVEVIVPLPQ

| Variant | effect of a mutation on the interaction |
| --- | --- |
| L115R | with no effect |

Variants of: B1
Settings: with snp29_human SNAP29, O95721

| Variant | effect of a mutation on the interaction |
| --- | --- |
| L115R | with no effect |

Variants of: B1
Settings: with syua_human SNCA

| Variant | effect of a mutation on the interaction |
| --- | --- |
| L115R | with no effect |

Variants of: B1
Settings: with zdh17_human ZDHHC17, Q8IUH5
Remark: another data set of the same source

| Variant | effect of a mutation on the interaction |
| --- | --- |
| L115R | decreasing interaction strength |

Variants of: B1
Settings: with grm8_human GRM8, O00222
Sequence of grm8_human GRM8, O00222 (O00222 whole entry): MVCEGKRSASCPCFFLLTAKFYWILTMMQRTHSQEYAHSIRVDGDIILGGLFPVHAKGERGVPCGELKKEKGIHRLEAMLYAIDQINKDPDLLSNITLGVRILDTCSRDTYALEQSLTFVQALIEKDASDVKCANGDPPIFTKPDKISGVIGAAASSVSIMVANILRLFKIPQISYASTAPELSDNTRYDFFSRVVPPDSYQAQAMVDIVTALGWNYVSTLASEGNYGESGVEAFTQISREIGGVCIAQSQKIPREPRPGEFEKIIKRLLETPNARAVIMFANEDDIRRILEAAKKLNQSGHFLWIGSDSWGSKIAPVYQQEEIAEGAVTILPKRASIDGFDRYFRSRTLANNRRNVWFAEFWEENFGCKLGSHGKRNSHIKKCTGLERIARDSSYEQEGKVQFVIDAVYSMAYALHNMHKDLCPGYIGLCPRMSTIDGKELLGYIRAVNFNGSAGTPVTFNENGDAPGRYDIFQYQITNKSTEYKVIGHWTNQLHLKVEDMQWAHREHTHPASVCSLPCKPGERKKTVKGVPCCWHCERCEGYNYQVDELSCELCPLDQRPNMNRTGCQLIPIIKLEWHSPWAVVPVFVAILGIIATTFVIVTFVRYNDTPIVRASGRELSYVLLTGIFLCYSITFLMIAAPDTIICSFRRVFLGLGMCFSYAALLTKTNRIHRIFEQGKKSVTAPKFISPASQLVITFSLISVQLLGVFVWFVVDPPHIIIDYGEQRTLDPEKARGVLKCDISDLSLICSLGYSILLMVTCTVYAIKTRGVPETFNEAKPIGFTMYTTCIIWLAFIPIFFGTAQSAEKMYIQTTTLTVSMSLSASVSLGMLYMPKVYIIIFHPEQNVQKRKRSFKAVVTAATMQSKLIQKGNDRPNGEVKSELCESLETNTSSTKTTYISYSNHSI

| Variant | effect of a mutation on the interaction |
| --- | --- |
| L115R | decreasing interaction strength |

Variants of: B1
Settings: with nrx3b_human NRXN3, Q9HDB5
Sequence of nrx3b_human NRXN3, Q9HDB5 (Q9HDB5 whole entry): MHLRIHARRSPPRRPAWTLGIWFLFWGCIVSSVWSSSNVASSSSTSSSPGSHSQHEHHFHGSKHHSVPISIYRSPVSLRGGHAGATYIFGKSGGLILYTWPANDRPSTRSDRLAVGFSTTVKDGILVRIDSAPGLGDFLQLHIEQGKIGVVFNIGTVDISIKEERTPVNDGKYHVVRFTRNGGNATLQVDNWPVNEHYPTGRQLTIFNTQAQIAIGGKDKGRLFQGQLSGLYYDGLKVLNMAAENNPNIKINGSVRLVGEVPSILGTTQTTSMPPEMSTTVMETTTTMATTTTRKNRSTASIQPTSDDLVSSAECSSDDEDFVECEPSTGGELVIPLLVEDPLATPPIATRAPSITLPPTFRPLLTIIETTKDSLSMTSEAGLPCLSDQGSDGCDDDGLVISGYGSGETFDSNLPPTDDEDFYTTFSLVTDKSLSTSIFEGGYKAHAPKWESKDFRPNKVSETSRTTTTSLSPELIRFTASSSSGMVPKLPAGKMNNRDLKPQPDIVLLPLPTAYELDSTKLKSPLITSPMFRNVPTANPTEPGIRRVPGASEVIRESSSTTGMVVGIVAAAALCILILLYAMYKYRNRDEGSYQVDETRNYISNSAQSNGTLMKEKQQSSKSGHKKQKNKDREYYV

| Variant | effect of a mutation on the interaction |
| --- | --- |
| L115R | decreasing interaction strength |

Variants of: B1
Settings: with syph_human SYP

| Variant | effect of a mutation on the interaction |
| --- | --- |
| L115R | decreasing interaction strength |

Variants of: B1
Settings: with syt1_human SYT1, P21579
Sequence of syt1_human SYT1, P21579 (P21579 whole entry): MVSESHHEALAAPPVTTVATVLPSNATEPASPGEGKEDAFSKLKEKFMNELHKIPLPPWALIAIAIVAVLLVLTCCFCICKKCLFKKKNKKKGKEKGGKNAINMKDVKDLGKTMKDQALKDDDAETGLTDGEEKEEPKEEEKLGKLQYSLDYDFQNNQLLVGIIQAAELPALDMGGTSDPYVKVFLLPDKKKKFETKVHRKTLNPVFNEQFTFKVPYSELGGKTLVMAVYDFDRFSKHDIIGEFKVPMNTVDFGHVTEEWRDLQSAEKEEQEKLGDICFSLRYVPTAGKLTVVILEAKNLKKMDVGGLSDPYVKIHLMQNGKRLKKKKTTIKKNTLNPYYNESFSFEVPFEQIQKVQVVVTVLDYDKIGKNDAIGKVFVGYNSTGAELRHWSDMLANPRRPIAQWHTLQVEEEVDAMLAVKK

| Variant | effect of a mutation on the interaction |
| --- | --- |
| L115R | decreasing interaction strength |

Variants of: B1
Settings: with vamp2_human VAMP2, P63027
Sequence of vamp2_human VAMP2, P63027 (P63027 whole entry): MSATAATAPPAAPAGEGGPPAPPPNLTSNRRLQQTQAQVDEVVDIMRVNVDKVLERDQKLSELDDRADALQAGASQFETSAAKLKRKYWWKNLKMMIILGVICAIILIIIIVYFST

| Variant | effect of a mutation on the interaction |
| --- | --- |
| L115R | decreasing interaction strength |

Variants of: B1
Settings: with vamp3_human VAMP3, Q15836
Sequence of vamp3_human VAMP3, Q15836 (Q15836 whole entry): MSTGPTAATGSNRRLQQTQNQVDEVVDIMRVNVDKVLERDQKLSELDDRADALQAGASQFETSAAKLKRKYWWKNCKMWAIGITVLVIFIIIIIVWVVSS

| Variant | effect of a mutation on the interaction |
| --- | --- |
| L115R | decreasing interaction strength |

Variants of: B1
Settings: with ap2a1_human AP2A1, O95782

| Variant | effect of a mutation on the interaction |
| --- | --- |
| L115R | with no effect |

Variants of: B1
Settings: with ap2s1_human AP2S1, P53680
Sequence of ap2s1_human AP2S1, P53680 (P53680 whole entry): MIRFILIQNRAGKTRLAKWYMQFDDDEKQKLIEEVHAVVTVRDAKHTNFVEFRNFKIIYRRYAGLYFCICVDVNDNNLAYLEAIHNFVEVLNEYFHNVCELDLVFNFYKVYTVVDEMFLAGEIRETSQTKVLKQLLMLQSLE

| Variant | effect of a mutation on the interaction |
| --- | --- |
| L115R | with no effect |

Variants of: B2
Settings: with lin7c_human LIN7C

| Variant | effect of a mutation on the interaction |
| --- | --- |
| L115R | with no effect |
